The source of these data is patent US20230151091A1 (NEW YORK UNIVERSITY, published 2023).

By koff is commonly meant a measure of how fast the partners let go of each other. In general, kon refers to a measure of how fast the partners come together. Broadly, the Kd is the free concentration of one partner at which half of the binding sites on the other are occupied at equilibrium, for simple one-to-one binding.

Assay [1] concerns the target T1, mouse MuSK (mouse, UniProt Q61006 22-494, limits assumed).
T1 construct: Coated on ELISA plates or on the Biacore chip; also called full length mouse MuSK; mouse MuSK (in house produced in HEK293 cells)
T1 sequence (looked up): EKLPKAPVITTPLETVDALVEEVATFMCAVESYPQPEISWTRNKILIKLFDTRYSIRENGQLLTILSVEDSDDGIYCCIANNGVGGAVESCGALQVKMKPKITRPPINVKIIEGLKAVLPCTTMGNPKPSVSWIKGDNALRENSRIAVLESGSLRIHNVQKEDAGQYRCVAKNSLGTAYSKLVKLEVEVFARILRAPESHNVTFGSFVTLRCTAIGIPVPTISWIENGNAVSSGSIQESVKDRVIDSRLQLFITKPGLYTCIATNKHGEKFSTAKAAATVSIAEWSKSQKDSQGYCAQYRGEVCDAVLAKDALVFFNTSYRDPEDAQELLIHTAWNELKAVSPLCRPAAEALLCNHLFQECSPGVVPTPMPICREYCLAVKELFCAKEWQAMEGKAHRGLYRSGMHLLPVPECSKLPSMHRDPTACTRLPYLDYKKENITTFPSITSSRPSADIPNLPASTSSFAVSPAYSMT
Briefly: Biacore, MuSK on chip, association pH 7.4, dissociation pH 5.5. Put shortly:
(§1)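 MuSK was immobilized on the sensor chip at 200 RU, and antibody was injected at 66.7 nM. Association ran at pH 7.4 and dissociation at pH 5.5, and kinetic parameters were calculated from the sensorgrams.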
For orientation: SPR reads the build-up and loss of mass on a sensor chip optically.

The target in a further assay is T2, rat MuSK (rat, UniProt Q62838 22-494, limits assumed).
T2 construct: Coated on Biacore chip (200RU) or ELISA plate
T2 sequence (looked up): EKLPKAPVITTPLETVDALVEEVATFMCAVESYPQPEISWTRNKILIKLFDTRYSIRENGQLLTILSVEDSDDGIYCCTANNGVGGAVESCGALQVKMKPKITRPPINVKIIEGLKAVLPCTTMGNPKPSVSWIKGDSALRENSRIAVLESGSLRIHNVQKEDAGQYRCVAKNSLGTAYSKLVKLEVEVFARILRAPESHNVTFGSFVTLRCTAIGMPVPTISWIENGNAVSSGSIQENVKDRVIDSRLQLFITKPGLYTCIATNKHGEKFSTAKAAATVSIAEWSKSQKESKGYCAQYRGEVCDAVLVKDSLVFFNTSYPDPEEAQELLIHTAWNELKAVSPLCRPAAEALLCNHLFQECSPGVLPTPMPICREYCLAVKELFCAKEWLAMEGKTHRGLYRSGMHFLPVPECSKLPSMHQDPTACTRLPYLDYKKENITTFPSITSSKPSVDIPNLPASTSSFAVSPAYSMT
The assay is described as above. In short, it runs like this: as §1

The target of the next assay is cynomolgus monkey MuSK (cynomolgus monkey, UniProt A0A2K5USF6 24-487). Described as above. Put shortly:
as §1

Assay [2] concerns the target T3, mouse MuSK, endogenous (C2C12 myotubes; neuromuscular synapses of mice) (mouse, UniProt Q61006 22-868).
T3 sequence (looked up): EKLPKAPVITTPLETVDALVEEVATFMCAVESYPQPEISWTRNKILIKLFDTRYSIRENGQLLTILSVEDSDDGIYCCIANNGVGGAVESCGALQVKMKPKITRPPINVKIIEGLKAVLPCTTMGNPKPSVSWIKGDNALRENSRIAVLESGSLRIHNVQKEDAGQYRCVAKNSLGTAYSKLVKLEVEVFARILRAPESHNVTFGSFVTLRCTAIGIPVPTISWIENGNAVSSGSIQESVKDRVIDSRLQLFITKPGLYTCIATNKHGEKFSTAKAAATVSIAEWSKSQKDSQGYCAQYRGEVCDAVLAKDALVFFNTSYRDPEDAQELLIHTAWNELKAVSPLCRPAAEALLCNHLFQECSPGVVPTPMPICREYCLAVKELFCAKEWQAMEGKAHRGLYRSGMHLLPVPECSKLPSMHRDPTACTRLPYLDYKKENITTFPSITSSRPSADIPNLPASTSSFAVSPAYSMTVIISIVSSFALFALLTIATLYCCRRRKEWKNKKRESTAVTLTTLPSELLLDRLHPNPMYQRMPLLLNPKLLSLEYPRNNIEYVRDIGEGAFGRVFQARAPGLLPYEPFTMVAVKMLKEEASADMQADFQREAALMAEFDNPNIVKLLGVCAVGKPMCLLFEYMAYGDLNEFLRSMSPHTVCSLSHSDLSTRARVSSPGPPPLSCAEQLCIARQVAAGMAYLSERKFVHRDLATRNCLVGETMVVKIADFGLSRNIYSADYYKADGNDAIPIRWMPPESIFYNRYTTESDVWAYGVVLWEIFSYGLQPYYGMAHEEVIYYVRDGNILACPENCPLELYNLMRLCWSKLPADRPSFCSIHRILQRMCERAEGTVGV
Nature of the assay: cell-based or functional assay.

Assay [3] addresses T1, mouse MuSK. Briefly: Biacore, MuSK on chip (200RU), mAb dilution series. The source says: For affinity determination, a CMS chip was coated with either human or mouse MuSK (200RU) and a dilution series of the antibodies (mAbs and Fabs) was applied in order to be able to calculate the affinity.

cynomolgus monkey MuSK, sequence (A0A2K5USF6 entry or part of it): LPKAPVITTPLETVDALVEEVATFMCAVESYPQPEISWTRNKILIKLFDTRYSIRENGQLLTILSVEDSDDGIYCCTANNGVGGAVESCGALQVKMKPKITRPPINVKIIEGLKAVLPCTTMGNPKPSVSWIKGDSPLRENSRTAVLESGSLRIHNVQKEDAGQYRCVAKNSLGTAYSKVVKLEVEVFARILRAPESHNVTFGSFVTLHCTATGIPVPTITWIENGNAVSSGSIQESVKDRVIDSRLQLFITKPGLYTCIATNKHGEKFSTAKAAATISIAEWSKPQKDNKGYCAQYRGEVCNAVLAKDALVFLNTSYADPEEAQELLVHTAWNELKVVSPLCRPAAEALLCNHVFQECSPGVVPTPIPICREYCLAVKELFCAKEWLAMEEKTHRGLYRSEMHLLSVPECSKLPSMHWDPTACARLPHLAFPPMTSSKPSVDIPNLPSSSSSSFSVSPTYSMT

B1: 3B2 (antibody, V domains shown)
VH: ELQLVESGGGLVQPGGSLRLSCAASGFTFDDYGMSWVRQAPGKGLEWVSAIPWNGGSTYYKESVKGRFTISRDNAKKTLYLQMNSLKSEDTAVYYCAKRSGRIAFGALDAWGQGTLVTVSS
VL: QAVVTQEPSLSVSPGGTVTLTCGLSSGSVTSSNYPDWYQQTPGQAPRGLIYSTDSRHSGVPSRFSGSISGNKAALTITGAQSEDEADYYCGLYMYSGSKNYVFGGGTKLTVL
notes: human IgG1 with the LALA mutations (L234A, L235A); produced in HEK293 cells; also called 3B2 mAb; parental 3B2 Ab
B1: in the assay with mouse MuSK [1], the R0 was determined as 194 RU, the koff is 0.00296 s⁻¹ and the kon worked out at 1.05e+06 M⁻¹ s⁻¹. In the assay with rat MuSK, the R0 was 174 RU, the koff turned out to be 0.0062 s⁻¹ and the kon came to 980000 M⁻¹ s⁻¹. In the assay with cynomolgus monkey MuSK, this molecule showed an R0 of 149 RU, a koff of 0.00317 s⁻¹ and a kon of 740000 M⁻¹ s⁻¹. In addition, in assay [2], the “% Phosphorylation Induced in C2C12 Mouse Assay, Assay 1” value came to 74 % versus agrin; the “% Phosphorylation Induced in C2C12 Mouse Assay, Assay 2” value was 94 % versus agrin; the “% Phosphorylation Induced in C2C12 Mouse Assay, Assay 3” value turned out to be 64 % versus agrin; the “% Phosphorylation Induced in C2C12 Mouse Assay, Average” value amounted to 77 % versus agrin. Also, the Kd with mouse MuSK [3] turned out to be 0.134 nM.
